In the assay the target is T1, SWIP-MUT-HA (human WASHC4 P1019R) (human, UniProt Q2M389 1-1173, P1019R).
T1 construct: SWIP (WASHC4), human, with the patients' variant c.3056C>G, p.Pro1019Arg, made by site-directed mutagenesis of pmCAG-SWIP-WT-HA; The mutation occurs in human patients (Ropers et al., 2011); also called SWIP^P1019R; MUT SWIP; source: HEK293T, transfected (pmCAG-SWIP-MUT-HA), in lysate
T1 sequence (looked up): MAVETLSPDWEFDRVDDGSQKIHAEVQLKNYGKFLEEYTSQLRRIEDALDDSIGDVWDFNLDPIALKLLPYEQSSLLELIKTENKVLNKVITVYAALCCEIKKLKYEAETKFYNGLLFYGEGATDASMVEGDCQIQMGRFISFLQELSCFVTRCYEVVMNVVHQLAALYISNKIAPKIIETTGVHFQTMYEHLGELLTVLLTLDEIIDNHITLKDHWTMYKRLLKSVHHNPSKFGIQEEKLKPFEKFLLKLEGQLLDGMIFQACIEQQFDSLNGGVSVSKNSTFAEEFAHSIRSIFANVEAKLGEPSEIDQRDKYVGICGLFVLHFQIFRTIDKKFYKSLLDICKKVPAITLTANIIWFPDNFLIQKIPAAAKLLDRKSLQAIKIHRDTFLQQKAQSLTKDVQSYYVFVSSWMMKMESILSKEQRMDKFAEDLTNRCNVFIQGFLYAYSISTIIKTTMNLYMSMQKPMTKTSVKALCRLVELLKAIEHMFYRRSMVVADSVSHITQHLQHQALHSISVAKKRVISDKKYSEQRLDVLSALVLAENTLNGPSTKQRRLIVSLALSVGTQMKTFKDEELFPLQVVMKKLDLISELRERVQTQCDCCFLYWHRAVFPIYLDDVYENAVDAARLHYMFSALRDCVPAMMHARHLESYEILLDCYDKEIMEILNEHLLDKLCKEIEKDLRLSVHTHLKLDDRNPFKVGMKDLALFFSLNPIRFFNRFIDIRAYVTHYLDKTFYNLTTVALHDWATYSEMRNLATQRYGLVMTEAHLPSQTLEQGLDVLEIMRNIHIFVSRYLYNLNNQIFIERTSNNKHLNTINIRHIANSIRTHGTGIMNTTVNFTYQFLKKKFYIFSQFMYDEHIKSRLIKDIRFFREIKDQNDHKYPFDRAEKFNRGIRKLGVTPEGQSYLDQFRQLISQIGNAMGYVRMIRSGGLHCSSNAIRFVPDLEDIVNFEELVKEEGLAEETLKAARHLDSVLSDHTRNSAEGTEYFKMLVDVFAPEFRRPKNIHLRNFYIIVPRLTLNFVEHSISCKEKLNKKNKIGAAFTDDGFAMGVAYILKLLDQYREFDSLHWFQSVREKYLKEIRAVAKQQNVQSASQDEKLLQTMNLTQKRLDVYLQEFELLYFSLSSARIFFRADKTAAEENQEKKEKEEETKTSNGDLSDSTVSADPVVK
In words: co-IP; HEK293T transfected with SWIP-WT-HA or SWIP-MUT-HA for three days; lysis buffer 25 mM HEPES, 150 mM NaCl, 1 mM EDTA, 1% Nonidet P-40, pH 7.4; anti-HA agarose beads 2 hr at 4°C; blots for WASH1, Strumpellin and HA; band intensities normalised to WT. The settings on record: partners not purified.

B1: WASH1 (WASHC1), human (natural protein, human (endogenous in HEK293T), UniProt A8K0Z3 1-465, looked up)
chain: MTPVRMQHSLAGQTYAVPFIQPDLRREEAVQQMADALQYLQKVSGDIFSRISQQVEQSRSQVQAIGEKVSLAQAKIEKIKGSKKAIKVFSSAKYPAPGRLQEYGSIFTGAQDPGLQRRPRHRIQSKHRPLDERALQEKLKDFPVCVSTKPEPEDDAEEGLGGLPSNISSVSSLLLFNTTENLYKKYVFLDPLAGAVTKTHVMLGAETEEKLFDAPLSISKREQLEQQVPENYFYVPDLGQVPEIHVPSYLPDLPGIANDLMYSADLGPGIAPSAPGTIPELPTFHTEVAEPLKVDLQDGVLTPPPPPPPPPPAPEVLASAPPLPPSTAAPVGQGARQDDSSSSASPSVQGAPREVVDPSGGWATLLESIRQAGGIGKAKLRSMKERKLEKQQQKEQEQVRATSQGGHLMSDLFNKLVMRRKGISGKGPGAGEGPGGAFVRVSDSIPPLPPPQQPQAEEDEDDWES
notes: WASH1 (WASHC1), endogenous in HEK293T cells, detected with an anti-WASH1 C-terminal antibody; Human cells carry several near-identical WASH paralogues; source: endogenous, HEK293T lysate
Take B1: the “amount co-immunoprecipitated, % of WT SWIP” value is 41.4 % of WT.

B2: Strumpellin (WASHC5), human (natural protein, human (endogenous in HEK293T), UniProt Q12768 1-1159, looked up)
chain: MLDFLAENNLCGQAILRIVSCGNAIIAELLRLSEFIPAVFRLKDRADQQKYGDIIFDFSYFKGPELWESKLDAKPELQDLDEEFRENNIEIVTRFYLAFQSVHKYIVDLNRYLDDLNEGVYIQQTLETVLLNEDGKQLLCEALYLYGVMLLVIDQKIEGEVRERMLVSYYRYSAARSSADSNMDDICKLLRSTGYSSQPGAKRPSNYPESYFQRVPINESFISMVIGRLRSDDIYNQVSAYPLPEHRSTALANQAAMLYVILYFEPSILHTHQAKMREIVDKYFPDNWVISIYMGITVNLVDAWEPYKAAKTALNNTLDLSNVREQASRYATVSERVHAQVQQFLKEGYLREEMVLDNIPKLLNCLRDCNVAIRWLMLHTADSACDPNNKRLRQIKDQILTDSRYNPRILFQLLLDTAQFEFILKEMFKQMLSEKQTKWEHYKKEGSERMTELADVFSGVKPLTRVEKNENLQAWFREISKQILSLNYDDSTAAGRKTVQLIQALEEVQEFHQLESNLQVCQFLADTRKFLHQMIRTINIKEEVLITMQIVGDLSFAWQLIDSFTSIMQESIRVNPSMVTKLRATFLKLASALDLPLLRINQANSPDLLSVSQYYSGELVSYVRKVLQIIPESMFTSLLKIIKLQTHDIIEVPTRLDKDKLRDYAQLGPRYEVAKLTHAISIFTEGILMMKTTLVGIIKVDPKQLLEDGIRKELVKRVAFALHRGLIFNPRAKPSELMPKLKELGATMDGFHRSFEYIQDYVNIYGLKIWQEEVSRIINYNVEQECNNFLRTKIQDWQSMYQSTHIPIPKFTPVDESVTFIGRLCREILRITDPKMTCHIDQLNTWYDMKTHQEVTSSRLFSEIQTTLGTFGLNGLDRLLCFMIVKELQNFLSMFQKIILRDRTVQDTLKTLMNAVSPLKSIVANSNKIYFSAIAKTQKIWTAYLEAIMKVGQMQILRQQIANELNYSCRFDSKHLAAALENLNKALLADIEAHYQDPSLPYPKEDNTLLYEITAYLEAAGIHNPLNKIYITTKRLPYFPIVNFLFLIAQLPKLQYNKNLGMVCRKPTDPVDWPPLVLGLLTLLKQFHSRYTEQFLALIGQFICSTVEQCTSQKIPEIPADVVGALLFLEDYVRYTKLPRRVAEAHVPNFIFDEFRTVL
notes: Strumpellin (WASHC5), endogenous in HEK293T cells, detected with an anti-Strumpellin antibody; source: endogenous, HEK293T lysate
As for B2, the “amount co-immunoprecipitated, % of WT SWIP” value was 54.8 % of WT.
